According to patent CN101605906A (MEDAREX INC, dated 2009):

Biological target: T1, 人类CD70 (表达于细胞表面) (human, UniProt P32970 1-193)
T1 sequence: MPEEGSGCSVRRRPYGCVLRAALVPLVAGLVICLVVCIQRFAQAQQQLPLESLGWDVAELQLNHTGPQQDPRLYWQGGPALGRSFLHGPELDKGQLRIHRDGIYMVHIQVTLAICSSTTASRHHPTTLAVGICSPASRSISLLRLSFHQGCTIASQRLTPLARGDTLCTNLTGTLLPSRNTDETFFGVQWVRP
Assay: cell-based or functional assay

B1: 抗-CD70人类单克隆抗体2H5 (antibody, V domains shown)
VH: QVQLVESGGGVVQPGRSLRLSCAASGFTFSSYIMHWVRQAPGKGLEWVAVISYDGRNKYYADSVKGRFTISRDNSKNTLYLQMNSLRAEDTAVYYCARDTDGYDFDYWGQGTLVTVSS
VL: EIVLTQSPATLSLSPGERATLSCRASQSVSSYLAWYQQKPGQAPRLLIYDASNRATGIPARFSGSGSGTDFTLTISSLEPEDFAVYYCQQRTNWPLTFGGGTKVEIK
3 H-胸腺嘧啶核苷掺入 (Hum-Zap内化测定, 786-O细胞), EC50: 0.9 nM
